Data published in publication PMC9456514, “Three-Dimensional Envelope and Subunit Interactions of the Plastid-Encoded RNA Polymerase from Sinapis alba” (International Journal of Molecular Sciences, 2022).

Target: T1, β subunit of the plastid-encoded RNA polymerase (SaRpoB) (Sinapis alba (endogenous in cotyledon …, UniProt P46818 1-1078))
T1 construct: RNA polymerase β subunit, product of the plastid gene rpoB, Sinapis alba
T1 sequence (looked up): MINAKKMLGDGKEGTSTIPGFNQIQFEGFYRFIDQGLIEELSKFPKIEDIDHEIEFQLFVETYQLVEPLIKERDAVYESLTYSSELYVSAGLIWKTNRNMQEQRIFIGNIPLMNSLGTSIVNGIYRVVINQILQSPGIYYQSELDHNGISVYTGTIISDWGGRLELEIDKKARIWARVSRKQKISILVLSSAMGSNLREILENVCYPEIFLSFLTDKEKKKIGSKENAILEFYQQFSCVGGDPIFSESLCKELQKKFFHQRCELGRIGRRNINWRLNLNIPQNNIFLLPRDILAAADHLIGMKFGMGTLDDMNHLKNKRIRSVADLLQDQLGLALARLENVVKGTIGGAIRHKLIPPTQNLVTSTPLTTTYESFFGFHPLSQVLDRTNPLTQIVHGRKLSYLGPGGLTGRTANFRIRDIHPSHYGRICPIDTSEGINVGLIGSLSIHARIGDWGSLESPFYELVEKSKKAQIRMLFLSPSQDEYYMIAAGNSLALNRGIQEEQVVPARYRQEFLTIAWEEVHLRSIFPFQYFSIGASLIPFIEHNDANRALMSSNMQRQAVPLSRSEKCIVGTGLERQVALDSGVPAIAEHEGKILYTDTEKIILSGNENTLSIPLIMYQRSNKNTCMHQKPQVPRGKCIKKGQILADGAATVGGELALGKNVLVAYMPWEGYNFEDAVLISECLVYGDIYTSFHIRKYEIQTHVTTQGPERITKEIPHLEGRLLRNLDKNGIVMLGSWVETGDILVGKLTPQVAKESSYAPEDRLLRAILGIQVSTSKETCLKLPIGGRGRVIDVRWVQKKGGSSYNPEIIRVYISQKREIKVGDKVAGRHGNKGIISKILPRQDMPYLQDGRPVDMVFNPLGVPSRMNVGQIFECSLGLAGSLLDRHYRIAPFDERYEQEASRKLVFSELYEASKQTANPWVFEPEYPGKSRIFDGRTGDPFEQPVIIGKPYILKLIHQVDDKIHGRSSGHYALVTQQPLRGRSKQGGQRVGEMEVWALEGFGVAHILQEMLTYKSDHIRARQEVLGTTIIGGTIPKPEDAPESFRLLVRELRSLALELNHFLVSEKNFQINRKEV
Assay: co-purification of the native complex with mass spectrometry; chloroplast lysate of S. alba cotyledons; heparin resin (elution 1.2 M (NH4)2SO4), 35-15% glycerol gradient, Q-Sepharose (0-1 M NaCl), 100-kDa cutoff concentration; three independent preparations; label-free MS, iBAQ values
Details: partners not purified

B1: α subunit of the plastid-encoded RNA polymerase (SaRpoA) (natural protein, UniProt Q9XQN8 1-327, looked up)
chain: MVREKVKVSTRTLQWKCVESRRDSKRLYYGRFILSPLMKGQADTIGIAMARALLGEIEGTCITRAKSENIPHDYSNIVGIQESVHEILMNLNEIVLKSNLYGTRNPFICVQGPGYITARDIILPPSVEIVDNTQHIATLTEPINLCIGLKIERNRGYSLKMSNNFEDRSYPIDAVFMPVQNANHSIHSYGNGNEKQEILFIEIWTNGSLTPKEALYEASRNLINLFIPFLHVEEETFYLENNQHQVTLPVFPFHNKLVNLRQKKKELAFQYIFIDQLELPPRIYNCLKKSNIHTLLDLLNNSQEDLIKMEHFHIEDVKKLLDILEKK
notes: RNA polymerase α subunit, product of the plastid gene rpoA, Sinapis alba
**Q.** How did the “stoichiometry N” value turn out when B1 was run?
**A.** ~2
